We go through one substance from paper doi:10.1101/2025.07.31.667833.

As usually defined, the stoichiometry N is the number of molecules, sites or subunits per partner or assembly.

This experiment concerns the target Spef1 K204Q/K206Q/R207Q/R215Q/R218Q mutant (full-length) (mouse) (UniProt Q99JL1). The experiment can be described thus: SEC-MALS.

Regarding “Spef1 K204Q/K206Q/R207Q/R215Q/R218Q mutant (full-length) (from UniProt Q99JL1 1-234) (natural protein)”, the stoichiometry N was 2.
